Data as given in patent US5576288A, “Fibroblast growth factor conjugates” (The Salk Institute For Biological Studies, priority 1994, dated 1996).

Experiments:
BHK cells [1] = experiment: competition of cytotoxicity by preincubation with basic FGF or NGF; format: cell-based, baby hamster; details: BHK cells preincubated one hour; basic FGF-SAP 10^-10 M; up to thousand-fold excess; FIG. 4
Procedure: Basic FGF-SAP was used at a concentration of 10^-10 M basic FGF-AP and C: preincubation with equimolar free of basic FGF; D: 10-fold excess of free basic FGF; E: 100-fold excess of basic FGF; F: 1000-fold excess of basic FGF; G: equimolar incubation with equimolar free NGF; H: 10-fold molar excess; I: 100-fold molar excess, J: […].
Specificity of the cytotoxic agent was examined in competition experiments in an effort to establish that the mitotoxic activity of the conjugate is receptor specific. BHK cells were preincubated for one hour with various levels of basic FGF or nerve growth factor (NGF) prior to treatment of the cells with the cytotoxic agent. […] In contrast, a thousand-fold excess of NGF has no effect.

BHK cells [2] = experiment: cytotoxic activity on BHK cells (cell count after two days); format: cell-based, baby hamster; details: highest dose tested 10^-8 M, FIG. 3
Procedure: The protein synthesis inhibition activity of the SAP protein was compared to the protein synthesis inhibition activity of the basic FGF-SAP conjugate in in vitro assays of protein synthesis as described in Siehn et al., Blood, 72:756-765 (1988), which is incorporated herein by reference. The cytotoxic activity of the conjugate was tested on baby hamster kidney fibroblasts (ATCC Accession No. CRL 6281). BHK cells were plated in 24 well plates at a concentration of 5000 cells/ml and incubated overnight at 37° C., 5% CO2. The following morning, HEPES-buffered DMEM and F-12 media (1:1) plus 5% FCS was aspirated from the wells and replaced with media alone or with media containing the conjugate, basic FGF or saporin. Two days later, the cells were washed twice, trypsinized and cell number determined with a Coulter Particle Counter (Coulter Electronics, Hialeah, Fla.).

| Substance | effect of preincubation on cytotoxic activity of basic FGF-SAP (BHK cells [1]) | toxic effect on BHK cell proliferation (BHK cells [2]) |
| --- | --- | --- |
| NGF: nerve growth factor used as competition control | no effect | – |
| SAP: type-1 ribosome-inactivating protein isolated from the seeds of Saponaria officinalis | – | no toxic effect |
